In the DeepSol protein solubility set:

Test: soluble on expression in E. coli; label from the status in PepcDB or PDB records

Sequence	soluble on expression in E. coli
MEINQKREEEDDDEMEWRRDGVKRDSNDFSNYCRQRSLSSDATIMSRQFFVYLIFHVLIDNVIARAPFTRDRPRGLGLLQLPTGMTDERSGPFFPGLYIAGDKAGQKPQTVPDVSLPGQTASFTGRSAFNPFTHMVSAVYTEDLVDAWGAGFAVNGVNNHGLNVRKNFDAFADAPLSSSDGMYQPFLSAASIGSEYDFSKIREVSGNFNLPIPGVNELFDFDGRFMVKGGGNGILNSAMEFPLTLSDPNERAPYTFKYLNYMADRHMHYGHVVPNVNLFVVGKDKIMERLMQNRLNPTMVG	not soluble
HEGVHRKPSLLAHPGPLVKSEETVILQCWSDVRFQHFLLHREGKFKDTLHLIGEHHDGVSKANFSIGPMMQDLAGTYRCYGSVTHSPYQLSAPSDPLDIVITGLYEKPSLSAQPGPTVLAGESVTLSCSSRSSYDMYHLSREGEAHERRFSAGPKVNGTFQADFPLGPATHGGTYRCFGSFRDSPYEWSNSSDPLLVSVTGNPSNSWPSPTEPSSETGNPRHLHAAAEQKLISEEDLNLDLVPRGSSSHHHHHHSSG	soluble
MEQHVIEFLTTTLDDLKAQDILAIDVRGKSSITDTMIIATGTSVRHVASTAERLITEAKKAGVQVLGEEGRAVADWVVVDFGQAIVHLLQADARELYQLEKLWRLEHHHHHH	not soluble
MNEIKTSCASTDRKWSTWESIDWNKCVIAVNKLQARIVKAQKAGKHGRVKSLQWVLTHSFYAKALAVKRVTSNSGSDTAGVDKVKWSTPNARFKAIGELKRRGYKPQPLKRVNIKKSNGKLRPLGIPTMKDRAMQALYLLALEPVSETTADSNSYGFRKERSTGDAREQCFCVLAKKASPEWIMEGDIQGCFDHISHEWLLNNIPMDKVMLRKWLKCGFVFNKELFPTEEGTPQGGIISPTLANMTLDGLQTMLAEKYHKKFVTRKTTTYYPKVHLVRYADDFIITGRNKEALEEIKPLVVDFLKERGLTLSEEKTKITHIDDGFDFLGYNIRKYKGVLLIKPSQKSLKKFMQKIRGIIDSNKGSKQESLIRLLNPVITGWVNYYKNCVASDTFRKADYLIFEKLWQWATRRHPKKGKYWIADRYFTRVKNRNWCFVANFKKGKTDDRIALKRLYDTKITRYVKVKGEANPFAPEWTEYFEKRKTYKMLQSLNGRKSLLYMWERQNHLCPVCGKPIDKEHPWGTSQQTVNGKKVNNLLHDSCRRKVIQTNKM	not soluble
QKPKLLYCSNGGYFLRIFPDGKVDGTRDRSDPYIQLQFYAESVGEVYIKSLETGQYLAMDSDGQLYASQSPSEECLFLERLEENNYNTYKSKVHADKDWFVGIKKNGKTKPGSRTHFGQKAILFLPLPVSSD	soluble
MSRRGLEREGGKPVSSDAKGLKRVDVRLKWDPSPWDRPPHHLDIIATTYAADAPHGRPVYVVQFDKRSPDGTINMSRHSRTGQGFGFVEEMTFELDRLSPSIARVIVGVAIHQDNGHKTFDDVSNTGVVVAEGYRELLTDGFERVAGATAATVAEFTRNASGAWEFREAVRGFDSDPVLFATEMGSAPRP	soluble
MGSDKIHHHHHHMKQGSLFENSQRNTPLASRVRPQTLDQFVGQAHLLGPGKILRELIENDQVSSMIFWGPPGVGKTTLAEIIARQTQATFLSFSAVDSSISKIKKIMHQAEADREIGEQTIVFVDEIHRFNKAQQDAFLPYVERGSIILIGATTENPSFEVNSALLSRCKVFVLKALATADIDQLLRNALTNPAGFSGRVTIGDAELRAIAEFANGDARMALNTLEMAVLNGDKQGDQVTVTQADLKQLITQKFVLYDKTGEEHYNIISALHKSMRNSDPDAAIYWLTRMLSGGEDPLYVARRLVRFASEDIGLADTNALNVAINVFQACQFLGMPECNVHLVEAVTYLSLAPKSNAIYKASQAAQKDVQQTRDEPVPLQLRNAPTKLMKDLGYGADYQYAHESAAKLTTMQTLPEALRGHVYYEPTEQGREGRFKARLAEIKRWQQQHRD	not soluble
MIMVSGCQQQKEETPFYYGTWDEGRAPGPTDGVKSATVTFTEDEVVETEVMEGRGEVQLPFMAYKVISQSTDGSIEIQYLGPYYPLKSTLKRGENGTLIWEQNGQRKTMTRIESKTGREEKDEKSKSLEHHHHHH	soluble
GSGMEQFPKETVVESSGPKVLETAEEIQERRQEVLTRYQSFKERVAERGQKLEDSYHLQVFKRDADDLGKWIMEKVNILTDKSYEDPTNIQGKYQKHQSLEAEVQTKSRLMSELEKTREERFTMGHSAHEETKAHIEELRHLWDLLLELTLEKGDQLLRAL	soluble
MSIKIDLNKCVGCQKCINICPGSLIDKNNDGKAYIKYPKDCWGCTACLKECKFKAIKYFLGADIGGNGSYMYVSEKGEELEWHMINEDGKEKIITTSRKESNKYLEHHHHHH	not soluble
MADLEAVLADVSYLMAMEKSRSQPAARASKRIVLPDPSVRSIMQKFLEKSGDMKFDKIFNQKLGFLLLKDYAENVSESPCPQIKFYEAIKEYEKMETPDERLTKAREIYDHHIMVEMLAHAHNYSKESLQHVQYHLLKQNVPPDLFHRYVLEICDQLRGDIFQRFLESDKFTRFCQWKNLELNMQLTMNDFSVHRIIGRGGFGEVYGCRKADTGKMYAMKCLDKKRIKMKQGETLALNERIMLSLVSTGQDCPFIVCMTYAFQSPDKLCFILDLMNGGDLHYHLSQHGVFTEQEMIFYASEVILGLEHMHNRFVVYRDLKPANILLDENGHVRVSDLGLACDYSKKKPHASVGTHGYMAPEVLAKGVAYDSSADWFSLGCMLYKLLKGHSPFRQHKSKDKNEIDKMTLTQDIELPNEGLSKDCRDLLEGLLKRDVPDRLGCRGKGPTEVKEHPFFKDVDWQTVYLRRMTPPLIPPRGEVNAADAFDIGNFDDDEVKGVKLQDGDSDLYKNFNIVISERWQNEIAETIFEVVNQDADKAESKKRSKQKIKVAVEEKDSDVIVHGYIKKLGGPFTSAWQTKYGKLYPSRLELYPESLTAKPELVFMDQIEDVCAEMQTIKGETAIIVKLRDGFKEPKICLTNSDEISLKEWHTSLRTAHKVSQELLQRMGRKAIKIYGVNHDPMLSESERPGSVTRAFLNRASSVDSGV	not soluble
MKFAFIAKHRSIWPVAWLCEALGVSRSGFHAWFNRSPSEHARHDEVLLERIKQSFQSSDRTYGARRVWHDVLEEGLSCGLHRIERLMRLNALRARPRRRGFPKDAGDRPVVMPNVLDRQFVADRPNQKWVADFTYIWTAEGWLYVAAVIDLFSRRVVGWSMNANMTAQLVTDALIMAIWRRGKPDALLHHSDQGSQYTSEQFQRLMGDHGITCSMSRSGNVWDNAAMESFFSSLKTERTARKVYRTRNDARADVFDYIERFYNPKRRHSTLGYLSPDDFETKVGLA	soluble
DVGSAIDAAHQAFLRYQQCPLKTRSAIISALRETLAPELATLAEESATETGMGNKEDKYLKNKAALENTPGIEDLTTSALTGDGGMVLFEYSPFGVIGAVAPSTNPTETIINNSISMLAAGNSVYFSPHPGAKKVSLKLIARIEEIAYRCSGIRNLVVTVAEPTFEATQQMMSHPLIAVLAITGGPGIVAMGMKSGKKVIGAGAGNPPCIVDETADLVKAAEDIISG	not soluble
MGSDKIHHHHHHMITSVAVVGCGWFGLPLAKALLSQGLKVTGSKRSPQEAEALSADGITGFALDLETLESEDLSSQTREAITQGLACDAIVINIPPGLRRGDNGYLDRLKRLKALMGTHEYQRIIFISTSGVYPAGGDSSGSGCVESDAKVHSPASETLLAAEALFSGANSADGVSNNHSDGSESNNSCVVVRFAGLIGPKRHPGRFLAGREDVPGGNLAVNMVHLDDCIGAVTLLLKAEGALSPAYNLCAPLHPTKAEFYQKAATQQGLTPPSFIEGDLAEDKRVDGGLITRELNYQYKFTDPLAMLTHC	not soluble
MVADIELDAAQSIAAVLFDKDGTLLGYDASWGPVNRELASIAAKGDAALADRLLAACGMDPVTGHVVPDSLLAAGNTAEIAAGLVAAGSSCDVVELTQRLDRLFTEAADKSVPVTDLKAFFARLKARGYKLGIASSDNENSIRQTAIRFGFEEDIDFVAGYDSGYGTKPQPGMVLGFCEAIGFPPERVAVVGDNNHDLHMAKNAGAGLRIAVLTGTGSRESLGADAHYCFDDITGLEALLPERAV	not soluble
MGHHHHHHSHMLQPPKIVAELSANHNQDLNLAKESLHAIKESGADFVKLQTYTPSCMTLNSKEDPFIIQGTLWDKENLYELYQKASTPLEWHAELFELARKLDLGIFSSPFSSQALELLESLNCPMYKIASFEIVDLDLIEKAARTQKPIILSSGIATHTELQDAISLCRRVNNFDITLLKCVSAYPSKIEDANLLSMVKLGEIFGVKFGLSDHTIGSLCPILATTLGASMIEKHFILNKSLQTPDSAFSMDFNGFKSMVEAIKQSVLALGEEEPRINPKTLEKRRFFARSLFVIKDIQKGEALTENNIKALRPNLGLHPKFYKEILGQKASKFLKANTPLSADDIERSL	soluble
MSQRIIQPSASDQQFPGKSDGYEYTVGPKQAITSEASTTYIPSRIYSESLLFKRQEASLSAMAFLFQEMISQLHRTCKTAGDFETKLSDYGHNIGIRLLELLNFRASVSPSSLPRASAFLSQNESSSKLSNASNSPGMLANSSTATSASANERLQEKQTESLSNYITKMRRRDLKILDILQFIHGTLWSYLFNHVSDDLVKSSERDNEYMIVDNFPTLTQFIPGENVSCEYFVCGIIKGFLFNAGFPCGVTAHRMPQGGHSQRTVYLIQFDRQVLDREGLRFG	soluble
MGSDKIHHHHHHMKTSLGPIQYCWPKEKVVEFYEAVAQSSVPLVYLGETVCSRRRELKFSDYLALAQMLKAAGKEVVLSTLTLIEAQSEFLELKKQVENGEFTIEANDVGAIYLAKEHGIPFVCGPSINSYNAATLKKFASWGMQRFVMPLELSKAWLTQVLDDLAPRQVEVEVFGHGFMPLAHSARCFTARHKGLTKDKCQTICIENPEGLLVQTQEDQPLLRLNGIQTQSANYMDLCDQQTQMQALGVDYFRISPSSLASIALADKLPAKSASHDRQCNGYWHQLPGLALS	not soluble
MSVETILVVGGGISGITTAVEAAEVGYNTVLVEKKPYLGGRAAQLNKYFPKLCPPYCGLEMNFRRIKPNPKITVYTMTEVESVSGQEGNYSVRLKVSPRFVNEKCTACNACAEACPVERPNEFNFGMDKTKAAYLPHVLSYPMRYVIDRDACKDNSCDKCVKACKYNAIDLNMKPQTIEMKVGSIVYATGWNPYDATRMDNLGFGRVKNVITNMMMERLAAPNGPTGGKLLRPSDNKEVKKVVFVQCAGSRDENHLNYCSSICCMASLKQATYVRERIPDSQVVVAYIDLRAPGKYEEFLNKVEADANVKLVKGKVAKIEEDKATGGVILEFEDVEGGGKRHEHADMAVLATGMEPCVKANSMLSFEENGFINGGSAAGIYSTGVAKRPSDVTTAIQDATGMALKSIQSLVRSLEHHHHHH	not soluble
MAGDPMTALKYLQAYPVALQQQVRQLIDEQRLGDYLSQRYPGRHAVQSDKALYSYALELKQEYLRNAPAIDKVLFDNRLDLTHRALGLHTTVSRVQGGKLKAKKEIRIASLFKEAAPEFLRMIVVHELAHFKESDHNKAFYKLCEHMLPGYHQLEFDLRVYLTWRDLQGKAGAPDLEHHHHHH	soluble
MSLDVQSDIVAYDAPKKDLYEIGEMPPLGHVPKEMYAWAIRRERHGEPDQAMQIEVVETPSIDSHEVLVLVMAAGVNYNGIWAGLGVPVSPFDGHKQPYHIAGSDASGIVWAVGDKVKRWKVGDEVVIHCNQDDGDDEECNGGDPMFSPTQRIWGYETPDGSFAQFTRVQAQQLMKRPKHLTWEEAACYTLTLATAYRMLFGHKPHDLKPGQNVLVWGASGGLGSYAIQLINTAGANAIGVISEEDKRDFVMGLGAKGVINRKDFKCWGQLPKVNSPEYNEWLKEARKFGKAIWDITGKGINVDMVFEHPGEATFPVSSLVVKKGGMVVICAGTTGFNCTFDVRYMWMHQKRLQGSHFANLKQASAANQLMIERRLDPCMSEVFPWAEIPAAHTKMYRNQHKPGNMAVLVQAPRTGLRTFADVLEAGRKEGHHHHHH	soluble
